Consider two proteins from article PMC3299407 (Biochemical Journal, 2011).

The data set deals with the molecule itself. As to the kind of experiment: native gel or EMSA. (In general: A gel shift assay detects complexes by their altered migration in electrophoresis.)

B1: myc-laforin wild type (pCMVmyc-laforin WT) (natural protein, human, UniProt O95278 1-331, looked up)
chain: MRFRFGVVVPPAVAGARPELLVVGSRPELGRWEPRGAVRLRPAGTAAGDGALALQEPGLWLGEVELAAEEAAQDGAEPGRVDTFWYKFLKREPGGELSWEGNGPHHDRCCTYNENNLVDGVYCLPIGHWIEATGHTNEMKHTTDFYFNIAGHQAMHYSRILPNIWLGSCPRQVEHVTIKLKHELGITAVMNFQTEWDIVQNSSGCNRYPEPMTPDTMIKLYREEGLAYIWMPTPDMSTEGRVQMLPQAVCLLHALLEKGHIVYVHCNAGVGRSTAAVCGWLQYVMGWNLRKVQYFLMAKRPAVYIDEEALARAQEDFFQKFGKVRSSVCSL
In general, stoichiometry N refers to the number of molecules, sites or subunits per partner or assembly. Regarding B1, the “stoichiometry N” value amounted to 2.

B2: myc-laforin S25D (pCMVmyc-laforin S25D) (natural protein, human, UniProt O95278 1-331, looked up)
chain: MRFRFGVVVPPAVAGARPELLVVGDRPELGRWEPRGAVRLRPAGTAAGDGALALQEPGLWLGEVELAAEEAAQDGAEPGRVDTFWYKFLKREPGGELSWEGNGPHHDRCCTYNENNLVDGVYCLPIGHWIEATGHTNEMKHTTDFYFNIAGHQAMHYSRILPNIWLGSCPRQVEHVTIKLKHELGITAVMNFQTEWDIVQNSSGCNRYPEPMTPDTMIKLYREEGLAYIWMPTPDMSTEGRVQMLPQAVCLLHALLEKGHIVYVHCNAGVGRSTAAVCGWLQYVMGWNLRKVQYFLMAKRPAVYIDEEALARAQEDFFQKFGKVRSSVCSL
Turning to B2, the “stoichiometry N” value is 2.
